Experimental findings from patent US20260297188 (published 2026) are described below.

This assay deals with T1, human NKp46 ECD (human).
T1 chain: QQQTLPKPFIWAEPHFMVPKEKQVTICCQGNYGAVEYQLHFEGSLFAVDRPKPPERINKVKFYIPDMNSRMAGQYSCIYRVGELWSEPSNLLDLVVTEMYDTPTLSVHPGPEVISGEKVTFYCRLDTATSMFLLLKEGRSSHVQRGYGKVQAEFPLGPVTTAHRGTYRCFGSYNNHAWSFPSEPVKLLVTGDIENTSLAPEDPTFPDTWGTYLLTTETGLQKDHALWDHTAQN
Briefly: SPR, 25C. In general terms: SPR reads the build-up and loss of mass on a sensor chip optically.

B1: ch6-1 (antibody, V domains shown)
VH: QSLEESGGGLVQPEGSLTLTCTASGFSFSSSAWICWVRQAPGKGLEWIGCINTVSVNAYYASWAKGRFTISKTSSTTVTLQVTSLTAADTATHFCARNPYNSLRLWGPGTLVTVSS
VL: DVVMTQTPASVSEPVGGTITINCQASENIYSSLAWYQQKPGQPPKLLMYDVSDLASGVPSRFSGSGSGTEFALTISDVQPDDAATYFCLGGYPSNNYRMAFGGGTEVVVK
As for B1, the Kd is 0.0209 nM.

B2: ch5-13 (antibody, V domains shown)
VH: QSVEESGGRLVTPGTPLTLTCTVSGFSLSSYHMSWVRQAPGKGLEWIGYILANTDSYYANWAKGRFTISKTSTTVDLKITSPTTEDTATYFCARYDNHDAAYSTLWGPGTLVTVSS
VL: AYDMTQTPASVEVAVGGTVTIKCQASQSISTALAWYQQKPGQPPKLLIYKASTLASGVSSRFKGSGSGTQFTLTISGVEPADAATYYCQQGYSRSNVDNVFGGGTEVVVK
B2 gave a dissociation constant (Kd) of 0.194 nM.

B3: ch3-7 (antibody, V domains shown)
VH: QSLEESGGRLVTPGTPLTLTCTVSGFSPSSYYMSWVRQAPGKGLEYIGIIFSGGSTWYASWAKGRVTISRTSTTVDLKMTSLTTEDTATYFCARGDAVGSGYWGLWGPGTLVTVSS
VL: AFELTQTPSSVEAAVGGTVTINCQASQDIYIYLAWYQQKPGQPPKLLIYSASTLASGVSSRFTGSRSGTQFTLTISDLEPADAATYYCQSYDGTSNTGFGGGTEVVVR
Turning to B3, the dissociation constant (Kd) is 0.0199 nM.

B4: IP-46-3 (antibody, V domains shown)
VH: EVQLQQSGPELVKPGASVKISCKTSGYTFTEYTMHWVKQSHGKSLEWIGGISPNIGGTSYNQKFKGKATLTVDKSSSTAYMELRSLTSEDSAVYYCARRGGSFDYWGQGTTLTVSS
VL: DIVMTQSPATLSVTPGDRVSLSCRASQSISDYLHWYQQKSHESPRLLIKYASQSISGIPSRFSGSGSGSDFTLSINSVEPEDVGVYYCQNGHSFPLTFGAGTKLELK
The molecule B4 yielded a Kd of 0.361 nM. This Kd is about 18-fold higher than that of the molecule before.

As usually defined, the Kd is the free concentration of one partner at which half of the binding sites on the other are occupied at equilibrium, for simple one-to-one binding.
